From paper PMC3153647 (The Journal of Cell Biology, 2011)

Biological target: T1, His-tagged Stx6 (aa 1–234) (human, UniProt O43752 1-234)
T1 sequence: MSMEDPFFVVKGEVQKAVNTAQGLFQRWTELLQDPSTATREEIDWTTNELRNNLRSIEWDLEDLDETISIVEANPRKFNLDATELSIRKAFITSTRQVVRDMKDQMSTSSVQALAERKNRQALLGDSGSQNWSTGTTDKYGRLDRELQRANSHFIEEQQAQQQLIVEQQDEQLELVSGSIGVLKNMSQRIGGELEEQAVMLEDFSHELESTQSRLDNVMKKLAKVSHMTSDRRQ
Assay: pull-down

B1: GST-Cog6 (aa 1–200), bacterial (domain or fragment)
chain: MAEGSGEVVAVSATGAANGLNNGAGGTSATTCNPLSRKLHKILETRLDNDKEMLEALKALSTFFVENSLRTRRNLRGDIERKSLAINEEFVSIFKEVKEELESISEDVQAMSNCCQDMTSRLQAAKEQTQDLIVKTTKLQSESQKLEIRAQVADAFLSKFQLTSDEMSLLRGTREGPITEDFFKALGRVKQIHNDVKVLL
- binding result: binds
